This note sets out measurements from patent US20190322762A1.

The target of assay [1] is ENO1 mutant 1-189 (human) (UniProt P06733). The assay is described as follows: ELISA, 400 ng protein coated, 10 microgram of EN10 mAb. (ELISA stands for enzyme-linked immunosorbent assay.)
In assay [2] the target is ENO1 mutant 1-297 (human) (UniProt P06733). The description is as above.
Assay [3] has as its target ENO1 with amino acid residues 297 to 434 deleted (human) (UniProt P06733). The assay is described as follows: ELISA, ENO1 deletion mutant Δ297-434 coated, 10 microgram of EN10 mAb.

Sequence of ENO1 with amino acid residues 297 to 434 deleted (human) (P06733 1-296, stated change not applied): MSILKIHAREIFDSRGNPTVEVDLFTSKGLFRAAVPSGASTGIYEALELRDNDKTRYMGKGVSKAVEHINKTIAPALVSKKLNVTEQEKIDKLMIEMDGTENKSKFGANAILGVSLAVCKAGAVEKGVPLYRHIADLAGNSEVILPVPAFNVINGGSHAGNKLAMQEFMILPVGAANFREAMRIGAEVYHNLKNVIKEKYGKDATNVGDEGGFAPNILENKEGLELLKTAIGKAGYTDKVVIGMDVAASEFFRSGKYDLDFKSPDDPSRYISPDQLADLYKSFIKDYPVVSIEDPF

B1: EN10 mAb (antibody, V domains shown)
VH: EVQLQQSGPELVKPGASVKMSCKASGYTFTSCVMNWVKQKPGQGLEWIGYINPYNDGTKYNEKFKGKATLTSDKSSSTAYMELSSLTSEDSAVYYCAREGFYYGNFDNWGQGTTLTVSS
VL: DIQMTQSPASLSASVGETVTITCRASENIYSYLTWYQQKQGKSPQLLVYNAKTLPEGVPSRFSGSGSGTQFSLKINSLQPEDFGSYYCQHHYGTPYTFGGGTKLEITR
For B1, the OD405 in assay [1] stood at 1.43 OD405; in assay [2], 1.56 OD405. The OD405 as percent of that of the wild type ENO1 is 42% in assay [1] and 39% in assay [2]. The molecule further had an OD450 in assay [3] of 0.47.
